Article PMC12500691
Where “and” joins values, the source holds several entries; their conditions need not be identical. Equal values may be shown once.

Columns and labels:
[1] = molecular target: SARS-CoV-2 SpikeHis (SARS-CoV-2 (Wuhan variant)) (UniProt P0DTC2); test: SPR
[2] = molecular target: SARS-CoV-2 Spike_(Strep) (SARS-CoV-2 (Wuhan variant)) (UniProt P0DTC2); test: SPR
[3] = molecular target: SARS-CoV-2 extended S1 subunit (SARS-CoV-2 (Wuhan variant)) (UniProt P0DTC2); test: SPR
[4] = molecular target: SARS-CoV-2 Spike_(Strep) (SARS-CoV-2 (Wuhan variant)) (UniProt P0DTC2); test: negative stain electron microscopy

human angiotensin converting enzyme 2, sequence (Q9BYF1 20-611): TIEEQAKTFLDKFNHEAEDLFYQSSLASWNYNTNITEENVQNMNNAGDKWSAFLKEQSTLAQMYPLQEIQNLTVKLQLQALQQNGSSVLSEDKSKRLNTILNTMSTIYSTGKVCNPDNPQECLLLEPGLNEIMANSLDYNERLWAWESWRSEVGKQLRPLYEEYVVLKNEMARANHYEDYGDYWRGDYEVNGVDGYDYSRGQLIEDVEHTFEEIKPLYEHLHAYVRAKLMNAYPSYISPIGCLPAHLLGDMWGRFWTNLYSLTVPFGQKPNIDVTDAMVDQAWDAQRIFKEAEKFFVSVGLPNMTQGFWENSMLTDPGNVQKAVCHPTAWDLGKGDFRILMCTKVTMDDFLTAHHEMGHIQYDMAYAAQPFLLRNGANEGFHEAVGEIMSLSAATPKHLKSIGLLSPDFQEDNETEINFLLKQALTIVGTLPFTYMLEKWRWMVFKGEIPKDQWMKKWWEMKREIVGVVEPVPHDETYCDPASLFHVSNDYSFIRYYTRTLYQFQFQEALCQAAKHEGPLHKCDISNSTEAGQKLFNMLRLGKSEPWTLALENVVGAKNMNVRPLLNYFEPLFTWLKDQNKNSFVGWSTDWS

For LL-37 (peptide), the Kd [1] was 410 nM, the IC50 [2] was 670 nM and the Kd [2] was 410 nM. It also gave a stoichiometry N [2] of 6, an IC50 [3] of 160 nM and a Kd [3] of 200 nM.
gold-labeled LL-37 (peptide) was tested, and the stoichiometry N [4] was 4 and 7.
Substance “human angiotensin converting enzyme 2 (from UniProt Q9BYF1-1 20-611) (receptor)” has a Kd [3] of 610 nM.
